# B1: TPR t1 (parent)
# chain: GACCAAUCUGCCCUCAGAGCUCGAGAACAUCUUCGGAUGCAGAGGAGGCAGGCUUCGGUGGCGCGAUAGCGCCAACGUCCUCAACCUCCAAUGCAUCCCACCACAUGAUGAUGCCUGAAGAGCCUUGGUUUUUUG
# Variants of: B1
# Experiment: polymerase ribozyme fitness, log enrichment relative to wild type (log ratio); higher = more active; in vitro selection for triplet polymerase activity
# Method in brief: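 After PCR construction and transcription, each subunit's mutant library from a heterodimeric triplet polymerase ribozyme was annealed with a biotinylated primer, the partner subunit and triplets. Incubation was frozen, at −7 °C, and extended constructs were gel-excised, bound to streptavidin beads and amplified by RT-PCR, in one selection round done in triplicate. Fitness is the logarithm of a genotype's enrichment divided by that of the wild type, from inverse-variance-weighted replicate averages of Illumina-sequenced inputs and outputs. The base of the logarithm is 2, and genotypes needed ≥10 input reads and ≥1 read per output.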
row,Variant,polymerase ribozyme fitness (log ratio)
1,A90C C101G,-3.07
2,G10A A29U A41C C73U A74U G113U,-3.95
3,G93A G135U,-2.04
4,C76G C88G,-1.08
5,C12A C56G A84U,-1.85
6,U9C A37U G110U,-0.951
7,G10U C11U C73A C88A U126C,-2.02
8,G10A C53A C72U C79A U96G,-1.55
9,C12A G61U,-0.581
10,A84U U112A G128U,-1.28
11,C4G G47A,-2.34
12,G61A C80U A105U,-3.51
13,C53G G63C G93C,-0.994
14,A6U C70U,-0.544
15,G10A A29G G113A U130A,-3.73
16,U21C C72G C85A U116C,-3.42
17,G93A U116A U130G,-4.69
18,G25U G120A,-3.94
19,A26G G44U U55G C88U,-3.03
20,C12U G44A C88U U92G U112A U116G G135A,-5.19
21,A43C,-2.17

row,Variant,polymerase ribozyme fitness (log ratio)
1,U14A G25U C34U G52U C56A A90G G93C C114G A121C G135A,-6.59
2,C13U C20A A27G G39A G60A C115A,-5.26
3,U9G A46C,-0.961
4,G25C A111U,-6.92
5,C34A C94A,-4.19
6,A5C G60A G61A C114A,-4.47
7,U21A G69U,0.577
8,U54G C72U C97U,-0.381
9,G10A A29C C124U,-0.613
10,A41U G110A A121C G122A G128U,-5.21
11,U81A U87C A121G,1.6
12,C64U U116G,-1.88
13,A43U G60U C123G U132G,0.532
14,C15U G39U G42A A84U,-4.16
15,G61U G77A,-0.736
16,C15A U54A C56A,-2.64
17,G63U U78C C123U,-1.9
18,C72A C86G G122A,-2.26
19,C8U G39U C49G G63C U78A G128A,-4.09
20,G45U A84C C94A,-2.59
21,G63A A91C,-4.17

row,Variant,polymerase ribozyme fitness (log ratio)
1,C64U U87G G113A,-0.485
2,C40G G61A G120A,0.253
3,C8U A29G C94A U116G,-2.84
4,C11G C20U A46G A83G A95G,-1.9
5,U106G G107A U133A,-5.4
6,C3A G52U G60U,-1.88
7,A41U C88U,-1.27
8,C40A A84G C104A G120C G135A,-4.9
9,A2C G52A,-2.22
10,U7C C11G A27U G35U G45A U59C A84G C101U A121U,-8.13
11,U7G G57A C94A C99U A121C,-5.61
12,C8G G69C U96A,-2.59
13,A5U A6U U9G C28A C34A G60A A121C,-6.95
14,C15U A50U G71A C89U,-5.22
15,C8A C34U,-4.29
16,C8U G77A A84C A91C C98U,-2.47
17,G36A G71U C76U U125A,-4.4
18,A46G A68U C114G,-5.84
19,G42U G113U,-3.06
20,G61A U87A C124A,1.93
21,A100U U132C,-0.866

row,Variant,polymerase ribozyme fitness (log ratio)
1,C8A C15A A41C C49A G58U G63U,-3.45
2,G23A C70A,-4.2
3,C12G G110A,-0.401
4,C79U G120A,0.635
5,A18U G48C G71U C82A,-5.32
6,G10A U59A C62A C89G,-5.2
7,G60A G117A,-1.29
8,G39A U132A,-0.367
9,G47U G71A C104U,-2.44
10,C49G G57U A83U G110A A121G,-1.99
11,C20A A27C,-4.9
12,C80G U106A G122A,-6.86
13,C64U U78A,-0.358
14,C3U A95G,0.0555
15,C8G C53A G117A,0.922
16,A5C C12A A43G G60C,-4.18
17,U14G A37U A41G G47U C86A U87C,-4.82
18,G93A C101U C123U,0.532
19,A6U C8U,0.736
20,C49U C82G U96C C97U C115U U116A,-6.51
21,G39A C40G G69U C101A,-2.28

# — the RNAGym collection of RNA variant scans (doi:10.1073/pnas.2313332121)
